Results taken from patent publication US20090099029.

Biological target: T1, Bovine, dephosphorylated, Myelin Basic Protein (MBP), P02687
T1 chain: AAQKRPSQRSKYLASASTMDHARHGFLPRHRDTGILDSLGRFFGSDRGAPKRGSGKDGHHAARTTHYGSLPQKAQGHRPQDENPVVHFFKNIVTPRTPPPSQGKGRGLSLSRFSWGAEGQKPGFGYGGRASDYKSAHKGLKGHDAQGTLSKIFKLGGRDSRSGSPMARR

B1: PAK6 (protein)
chain: MFRKKKKKRPEISAPQNFQHRVHTSFDPKEGKFVGLPPQWQNILDTLRRPKPVVDPSRITRVQLQPMKTVVRGSAMPVDGYISGLLNDIQKLSVISSNTLRGRSPTSRRRAQSLGLLGDEHWATDPDMYLQSPQSERTDPHGLYLSCNGGTPAGHKQMPWPEPQSPRVLPNGLAAKAQSLGPAEFQGASQRCLQLGACLQSSPPGASPPTGTNRHGMKAAKHGSEEARPQSCLVGSATGRPGGEGSPSPKTRESSLKRRLFRSMFLSTAATAPPSSSKPGPPPQSKPNSSFRPPQKDNPPSLVAKAQSLPSDQPVGTFSPLTTSDTSSPQKSLRTAPATGQLPGRSSPAGSPRTWHAQISTSNLYLPQDPTVAKGALAGEDTGVVTHEQFKAALRMVVDQGDPRLLLDSYVKIGEGSTGIVCLAREKHSGRQVAVKMMDLRKQQRRELLFNEVVIMRDYQHFNVVEMYKSYLVGEELWVLMEFLQGGALTDIVSQVRLNEEQIATVCEAVLQALAYLHAQGVIHRDIKSDSILLTLDGRVKLSDFGFCAQISKDVPKRKSLVGTPYWMAPEVISRSLYATEVDIWSLGIMVIEMVDGEPPYFSDSPVQAMKRLRDSPPPKLKNSHKVSPVLRDFLERMLVRDPQERATAQELLDHPFLLQTGLPECLVPLIQLYRKQTSTC
**Q.** Which “MBP Kinase Activity” value does the source give for B1 here?
**A.** Its value is “Negative”.

B2: PRKCZ (protein)
chain: MPSRTGPKMEGSGGRVRLKAHYGGDIFITSVDAATTFEELCEEVRDMCRLHQQHPLTLKWVDSEGDPCTVSSQMELEEAFRLARQCRDEGLIIHVFPSTPEQPGLPCPGEDKSIYRRGARRWRKLYRANGHLFQAKRFNRRAYCGQCSERIWGLARQGYRCINCKLLVHKRCHGLVPLTCRKHMDSVMPSQEPPVDDKNEDADLPSEETDGIAYISSSRKHDSIKDDSEDLKPVIDGMDGIKISQGLGLQDFDLIRVIGRGSYAKVLLVRLKKNDQIYAMKVVKKELVHDDEDIDWVQTEKHVFEQASSNPFLVGLHSCFQTTSRLFLVIEYVNGGDLMFHMQRQRKLPEEHARFYAAEICIALNFLHERGIIYRDLKLDNVLLDADGHIKLTDYGMCKEGLGPGDTTSTFCGTPNYIAPEILRGEEYGFSVDWWALGVLMFEMMAGRSPFDIITDNPDMNTEDYLFQVILEKPIRIPRFLSVKASHVLKGFLNKDPKERLGCRPQTGFSDIKSHAFFRSIDWDLLEKKQALPPFQPQITDDYGLDNFDTQFTSEPVQLTPDDEDAIKRIDQSEFEGFEYINPLLLSTEESV
**Q.** How did the “MBP Kinase Activity” value turn out when B2 was run?
**A.** Its value is “Strong”.

B3: EPHB1 (protein)
chain: SRKRAYSKEAVYSDKLQHYSTGRGSPGMKIYIDPFTYEDPNEAVREFAKEIDVSFVKIEEVIGAGEFGEVYKGRLKLPGKREIYVAIKTLKAGYSEKQRRDFLSEASIMGQFDHPNIIRLEGVVTKSRPVMIITEFMENGALDSFLRQNDGQFTVIQLVGMLRGIAAGMKYLAEMNYVHRDLAARNILVNSNLVCKVSDFGLSRYLQDDTSDPTYTSSLGGKIPVRWTAPEAIAYRKFTSASDVWSYGIVMWEVMSFGERPYWDMSNQDVINAIEQDYRLPPPMDCPAALHQLMLDCWQKDRNSRPRFAEIVNTLDKMIRNPASLKTVATITAVPSQPLLDRSIPDFTAFTTVDDWLSAIKMVQYRDSFLTAGFTSLQLVTQMTSEDLLRIGITLAGHQKKILNSIHSMRVQISQSPTAMA
**Q.** With B3 as the protein, how does the “MBP Kinase Activity” value read?
**A.** The value was “Strong”.

B4: PAK3 (protein)
chain: MSDGLDNEEKPPAPPLRMNSNNRDSSALNHSSKPLPMAPEEKNKKARLRSIFPGGGDKTNKKKEKERPEISLPSDFEHTIHVGFDAVTGEFTGIPEQWARLLQTSNITKLEQKKNPQAVLDVLKFYDSKETVNNQKYMSFTSGDKSAHGYIAAHPSSTKTASEPPLAPPVSEEEDEEEEEEEDENEPPPVIAPRPEHTKSIYTRSVVESIASPAVPNKEVTPPSAENANSSTLYRNTDRQRKKSKMTDEEILEKLRSIVSVGDPKKKYTRFEKIGQGASGTVYTALDIATGQEVAIKQMNLQQQPKKELIINEILVMRENKNPNIVNYLDSYLVGDELWVVMEYLAGGSLTDVVTETCMDEGQIAAVCRECLQALDFLHSNQVIHRDIKSDNILLGMDGSVKLTDFGFCAQITPEQSKRSTMVGTPYWMAPEVVTRKAYGPKVDIWSLGIMAIEMVEGEPPYLNENPLRALYLIATNGTPELQNPERLSAVFRDFLNRCLEMDVDRRGSAKELLQHPFLKLAKPLSSLTPLIIAAKEAIKNSSR
**Q.** Which “MBP Kinase Activity” value does the source give for B4 here?
**A.** Its value is “Weak”.

B5: PHKG2 (protein)
chain: MTLDVGPEDELPDWAAAKEFYQKYDPKDVIGRGVSSVVRRCVHRATGHEFAVKIMEVTAERLSPEQLEEVREATRRETHILRQVAGHPHIITLIDSYESSSFMFLVFDLMRKGELFDYLTEKVALSEKETRSIMRSLLEAVSFLHANNIVHRDLKPENILLDDNMQIRLSDFGFSCHLEPGEKLRELCGTPGYLAPEILKCSMDETHPGYGKEVDLWACGVILFTLLAGSPPFWHRRQILMLRMIMEGQYQFSSPEWDDRSSTVKDLISRLLQVDPEARLTAEQALQHPFFERCEGSQPWNLTPRQRFRVAVWTVLAAGRVALSTHRVRPLTKNALLRDPYALRSVRHLIDNCAFRLYGHWVKKGEQQNRAALFQHRPPGPFPIMGPEEEGDSAAITEDEAVLVLG
**Q.** Which “MBP Kinase Activity” value does the source give for B5 here?
**A.** Its value is “Negative”.

B6: PRKCI (protein)
chain: MPTQRDSSTMSHTVAGGGSGDHSHQVRVKAYYRGDIMITHFEPSISFEGLCNEVRDMCSFDNEQLFTMKWIDEEGDPCTVSSQLELEEAFRLYELNKDSELLIHVFPCVPERPGMPCPGEDKSIYRRGARRWRKLYCANGHTFQAKRFNRRAHCAICTDRIWGLGRQGYKCINCKLLVHKKCHKLVTIECGRHSLPQEPVMPMDQSSMHSDHAQTVIPYNPSSHESLDQVGEEKEAMNTRESGKASSSLGLQDFDLLRVIGRGSYAKVLLVRLKKTDRIYAMKVVKKELVNDDEDIDWVQTEKHVFEQASNHPFLVGLHSCFQTESRLFFVIEYVNGGDLMFHMQRQRKLPEEHARFYSAEISLALNYLHERGIIYRDLKLDNVLLDSEGHIKLTDYGMCKEGLRPGDTTSTFCGTPNYIAPEILRGEDYGFSVDWWALGVLMFEMMAGRSPFDIVGSSDNPDQNTEDYLFQVILEKQIRIPRSLSVKAASVLKSFLNKDPKERLGCHPQTGFADIQGHPFFRNVDWDMMEQKQVVPPFKPNISGEFGLDNFDSQFTNEPVQLTPDDDDIVRKIDQSEFEGFEYINPLLMSAEECV
**Q.** For B6, which “MBP Kinase Activity” value is on record?
**A.** Its value is “Strong”.

B7: EPHB2 (protein)
chain: CNRRGFERADSEYTDKLQHYTSGHMTPGMKIYIDPFTYEDPNEAVREFAKEIDISCVKIEQVIGAGEFGEVCSGHLKLPGKREIFVAIKTLKSGYTEKQRRDFLSEASIMGQFDHPNVIHLEGVVTKSTPVMIITEFMENGSLDSFLRQNDGQFTVIQLVGMLRGIAAGMKYLADMNYVHRDLAARNILVNSNLVCKVSDFGLSRFLEDDTSDPTYTSALGGKIPIRWTAPEAIQYRKFTSASDVWSYGIVMWEVMSYGERPYWDMTNQDVINAIEQDYRLPPPMDCPSALHQLMLDCWQKDRNHRPKFGQIVNTLDKMIRNPNSLKAMAPLSSGINLPLLDRTIPDYTSFNTVDEWLEAIKMGQYKESFANAGFTSFDVVSQMMMEDILRVGVTLAGHQKKILNSIQVMRAQMNQIQSVEV
**Q.** For B7, which “MBP Kinase Activity” value is on record?
**A.** The value was “Strong”.

B8: PLK3 (protein)
chain: SGRTYLKGRLLGKGGFARCYEATDTETGSAYAVKVIPQSRVAKPHQREKILNEIELHRDLQHRHIVRFSHHFEDADNIYIFLELCSRKSLAHIWKARHTLLEPEVRYYLRQILSGLKYLHQRGILHRDLKLGNFFITENMELKVGDFGLAARLEPPEQRKKTICGTPNYVAPEVLLRQGHGPEADVWSLGCVMYTLLCGSPPFETADLKETYRCIKQVHYTLPASLSLPARQLLAAILRASPRDRPSIDQILRHDFFTKGYTPDRLPISSCVTVPDLTPPNPA
**Q.** B8 was tested. Which “MBP Kinase Activity” value did it give?
**A.** Its value is “Negative”.

B9: PRKCQ (protein)
chain: MSPFLRIGLSNFDCGSCQSCQGEAVNPYCAVLVKEYVESENGQMYIQKKPTMYPPWDSTFDAHINKGRVMQIIVKGKNVDLISETTVELYSLAERCRKNNGKTEIWLELKPQGRMLMNARYFLEMSDTKDMNEFETEGFFALHQRRGAIKQAKVHHVKCHEFTATFFPQPTFCSVCHEFVWGLNKQGYQCRQCNAAIHKKCIDKVIAKCTGSAINSRETMFHKERFKIDMPHRFKVYNYKSPTFCEHCGTLLWGLARQGLKCDACGMNVHHRCQTKVANLCGINQKLMAEALAMIESTQQARCLRDTEQIFREGPVEIGLPCSIKNEARPPCLPTPGKREPQGISWESPLDEVDKMCHLPEPELNKERPSLQIKLKIEDFILHKMLGKGSFGKVFLAEFKKTNQFFAIKALKKDVVLMDDDVECTMVEKRVLSLAWEHPFLTHMFCTFQTKENLFFVMEYLNGGDLMYHIQSCHKFDLSRATFYAAEIILGLQFLHSKGIVYRDLKLDNILLDKDGHIKIADFGMCKENMLGDAKTNTFCGTPDYIAPEILLGQKYNHSVDWWSFGVLLYEMLIGQSPFHGQDEEELFHSIRMDNPFYPRWLEKEAKDLLVKLFVREPEKRLGVRGDIRQHPLFREINWEELERKEIDPPFRPKVKSPFDCSNFDKEFLNEKPRLSFADRALINSMDQNMFRNFSFMNPGMERLIS
**Q.** B9 was tested. Which “MBP Kinase Activity” value did it give?
**A.** Its value is “Strong”.

B10: PRKCE (protein)
chain: MVVFNGLLKIKICEAVSLKPTAWSLRHAVGPRPQTFLLDPYIALNVDDSRIGQTATKQKTNSPAWHDEFVTDVCNGRKIELAVFHDAPIGYDDFVANCTIQFEELLQNGSRHFEDWIDLEPEGRVYVIIDLSGSSGEAPKDNEERVFRERMRPRKRQGAVRRRVHQVNGHKFMATYLRQPTYCSHCRDFIWGVIGKQGYQCQVCTCVVHKRCHELIITKCAGLKKQETPDQVGSQRFSVNMPHKFGIHNYKVPTFCDHCGSLLWGLLRQGLQCKVCKMNVHRRCETNVAPNCGVDARGIAKVLADLGVTPDKITNSGQRRKKLIAGAESPQPASGSSPSEEDRSKSAPTSPCDQEIKELENNIRKALSFDNRGEEHRAASSPDGQLMSPGENGEVRQGQAKRLGLDEFNFIKVLGKGSFGKVMLAELKGKDEVYAVKVLKKDVILQDDDVDCTMTEKRILALARKHPYLTQLYCCFQTKDRLFFVMEYVNGGDLMFQIQRSRKFDEPRSRFYAAEVTSALMFLHQHGVIYRDLKLDNILLDAEGHCKLADFGMCKEGILNGVTTTTFCGTPDYIAPEILQELEYGPSVDWWALGVLMYEMMAGQPPFEADNEDDLFESILHDDVLYPVWLSKEAVSILKAFMTKNPHKRLGCVASQNGEDAIKQHPFFKEIDWVLLEQKKIKPPFKPRIKTKRDVNNFDQDFTREEPVLTLVDEAIVKQINQEEFKGFSYFGEDLMP
**Q.** B10 was tested. Which “MBP Kinase Activity” value did it give?
**A.** The value was “Strong”.
